Legend:
[1] = target: T1, B7-H3 on surface of tumor cell (786-0, MDA-MB-231, Raji-B7-H3 cells) (human, UniProt Q5ZPR3 29-534); experiment: FACS on MDA-MB-231 cells
T1 construct: whole, on cells; The making of Raji-B7-H3 cells is not described; also called B7-H3 on the surface of tumor cells; human B7-H3
T1 sequence (looked up): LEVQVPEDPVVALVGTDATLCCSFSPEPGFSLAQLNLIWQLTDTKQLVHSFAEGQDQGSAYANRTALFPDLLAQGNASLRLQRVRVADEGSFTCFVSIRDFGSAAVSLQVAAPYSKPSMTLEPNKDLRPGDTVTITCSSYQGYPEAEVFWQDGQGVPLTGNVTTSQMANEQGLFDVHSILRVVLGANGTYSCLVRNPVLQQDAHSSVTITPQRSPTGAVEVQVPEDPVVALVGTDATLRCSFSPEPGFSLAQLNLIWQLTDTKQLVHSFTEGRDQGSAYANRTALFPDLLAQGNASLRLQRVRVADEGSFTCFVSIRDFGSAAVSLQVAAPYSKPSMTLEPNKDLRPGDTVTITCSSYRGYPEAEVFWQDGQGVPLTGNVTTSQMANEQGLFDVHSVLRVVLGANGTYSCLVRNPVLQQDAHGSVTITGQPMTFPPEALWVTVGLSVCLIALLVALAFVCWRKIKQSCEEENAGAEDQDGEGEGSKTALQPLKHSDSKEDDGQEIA
Method: (§1) The binding activity of antibodies to B7-H3 on the surface of tumor cells was analyzed by FACS. Mean fluorescence intensity (MFI) and EC₅₀ detected by FACS indicate the binding activity of the antibody to cells. After 786-0 and MDA-MB-231 cells were digested, they were resuspended in 2% FBS-PBS solution and counted. After raji-B7-H3 cells were collected, they were resuspended in 2% FBS-PBS and counted. The above cells were plated in a cell plate with 1×10⁵ cells per well. The anti-B7-H3 antibody of the present disclosure was used as the primary antibody and added to cell plates in gradient dilution starting from 20 μg/mL with a total of 8 concentrations: 20,000 ng/mL, […], 2,000 ng/mL, 400 ng/mL, 80 ng/mL, 16 ng/mL, 3.2 ng/mL, and 0.64 ng/mL respectively. The plates were incubated at 4° C. for 1 h with hBRCA84D as the positive control antibody. PE-Anti-Human IgG (Biolegend, Cat. No. 409303, 1.25 μl/well) was used as the secondary antibody, washed, and detected for the fluorescence intensity generated by the binding of the antibody to the cell surface by a flow cytometer.

[2] = target: T1, B7-H3 on surface of tumor cell (786-0, …); experiment: cell-based or functional assay
[3] = target: T1, B7-H3 on surface of tumor cell (786-0, …); experiment: FACS on 786-0 cells
Method: as §1

[4] = target: T2, human 4Ig-B7-H3-His protein (human, UniProt Q5ZPR3 29-466); experiment: ELISA, plate coated with human 4Ig-B7-H3-His, detection with anti-human IgG HRP, OD450
T2 construct: also called human B7-H3 protein
T2 sequence: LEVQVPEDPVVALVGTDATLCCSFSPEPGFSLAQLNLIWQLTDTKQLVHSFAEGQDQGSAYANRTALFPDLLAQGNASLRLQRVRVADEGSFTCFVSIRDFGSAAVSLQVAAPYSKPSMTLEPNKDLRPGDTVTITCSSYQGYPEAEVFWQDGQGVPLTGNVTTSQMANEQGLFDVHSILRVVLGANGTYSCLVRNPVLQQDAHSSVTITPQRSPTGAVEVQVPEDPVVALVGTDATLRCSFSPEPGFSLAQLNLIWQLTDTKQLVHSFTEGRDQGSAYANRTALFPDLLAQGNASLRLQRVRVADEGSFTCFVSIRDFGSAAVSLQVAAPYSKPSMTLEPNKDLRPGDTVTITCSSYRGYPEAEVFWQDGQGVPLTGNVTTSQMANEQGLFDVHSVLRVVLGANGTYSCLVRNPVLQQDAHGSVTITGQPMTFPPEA
Method: The binding activity of antibodies was analyzed by ELISA. 96-well ELISA plates were coated with human 4Ig-B7-H3-His protein or 2Ig-B7-H3-His protein (1 μg/well, prepared in Examples 1 and 2) and incubated overnight at 4° C. The plates were washed 3 times with 1×PBST and then blocked with 5% skim milk at 37° C. for 2 h. After washing 3 times with 1×PBST, the anti-B7-H3 antibody of the present disclosure was used as the primary antibody and added to the ELISA plates in 5-fold gradient dilution starting from 2 μg/mL with a total of 8 concentrations: 2,000 ng/mL, 400 ng/mL, 80 ng/mL, 16 ng/mL, 3.2 ng/mL, 0.64 ng/mL, 0.128 ng/mL and 0.0256 ng/mL respectively. The plates were incubated at 37° C. for 2 h with hBRCA84D as the positive control antibody. After washing 5 times with 1×PBST, Anti-Human IgG HRP (Jackson, 109-035-003, 1:5000) was used as the secondary antibody and incubated at 37° C. for 1 h. After washing 5 times with 1×PBST, color developing solution TMB was added to the plate, and microplate reader (Thermo, Multiskan FC) was used to read OD450 value after termination of the reaction. EC₅₀ was generated by GraphPad.

[5] = target: T3, Cynomolgus B7-H3-His (Sino Biological, Cat. No. 90806-C08H) (cynomolgus monkey); experiment: ELISA, plate coated with cynomolgus B7-H3-His, detection with anti-human IgG HRP, OD450
T3 construct: Bought reagent; also called cynomolgus monkey B7-H3; monkey B7-H3
Method: The binding activity of antibodies was analyzed by protein based ELISA. Cynomolgus B7-H3-His (0.5 μg/well, Sino Biological, Cat. No. 90806-C08H) was coated on 96-well ELISA plates. The anti-B7-H3 antibodies of the present disclosure was used as the primary antibody and added to the ELISA plates in 5-fold gradient dilution starting from 2 μg/mL with a total of 8 concentrations: 2,000 ng/mL, 400 ng/mL, 80 ng/mL, 16 ng/mL, 3.2 ng/mL, 0.64 ng/mL, 0.128 ng/mL, and 0.0256 ng/mL respectively. The plates were incubated at 37° C. for 2 h with AB06.12-4P as the positive control antibody. Anti-Human IgG HRP (Jackson, 109-035-003, 1:10,000) was used as the secondary antibody. Color developing solution TMB (3,3′,5,5′-tetramethylbenzidine) was added to the plate, and microplate reader (Thermo, Multiskan FC) was used to read OD450 value after termination of the reaction. EC₅₀ was generated by GraphPad.

EC50 [1]: 0.384 mg/L
Mean fluorescence intensity (MFI) [1]: 35800
EC50 Ratio (ADCC, LDH method; EC50 of hBRCA84D divided by EC50 of the antibody; 786-0 target cells, human PBMC effectors) [2]: 1
EC50 [3]: 0.226 mg/L
Mean fluorescence intensity (MFI) [3]: 233000
EC50 (read off the curve) [4]: ~0.005 mg/L
EC50 (read off the curve) [5]: ~0.006 mg/L
B1: hBRCA84D (antibody, human IgG1, kappa, V domains shown)
VH: EVQLVESGGGLVQPGGSLRLSCAASGFTFSSFGMHWVRQAPGKGLEWVAYISSDSSAIYYADTVKGRFTISRDNAKNSLYLQMNSLRDEDTAVYYCGRGRENIYYGSRLDYWGQGTTVTVSS
VL: DIQLTQSPSFLSASVGDRVTITCKASQNVDTNVAWYQQKPGKAPKALIYSASYRYSGVPSRFSGSGSGTDFTLTISSLQPEDFATYYCQQYNNYPFTFGQGTKLEIKR
notes: Humanized antibody from WO2011/109400; also called positive control antibody hBRCA84D; control antibody hBRCA84D

— US20220332829A1 (NANJING SANHOME PHARMACEUTICAL, published 2022)
